Measurements published in publication PMC4298360 (2015).
Substitutions are numbered along the chain they refer to.

B1: human IL-2Rα, monomeric, his-tagged (receptor)
chain: ELCDDDPPEIPHATFKAMAYKEGTMLNCECKRGFRRIKSGSLYMLCTGNSSHSSWDNQCQCTSSATRNTTKQVTPQPEEQKERKTTEMQSPMQPVDQASLPGHCREPPPWENEATERIYHFVVGQMVYYQCVQGYRALHRGPAESVCKMTHGKTRWTQPQLICTGEMETSQFPGEEKPQASPEGRPESETSCLVTTTDFQIQTEMAATMETSIFTTEYQVAVAGCVFLLISVLLLSGLTWQRRQRKSRRTI
B2: cynomolgus IL-2Rα, monomeric, his-tagged (receptor)
chain: ELCDDDPPKITHATFKAVAYKEGTMLNCECKRGFRRIKSGSPYMLCTGNSSHSSWDNQCQCTSSAARNTTKQVTPQPEEQKERKTTEMQSQMQLADQVSLPGHCREPPPWENEATERIYHFVVGQTVYYQCVQGYRALHRGPAESVCKMTHGKTRWTQPQLICTGETEPSQFPGEEEPQASPDGLPESETSRLVTTTDFRIQTEVAATMETFIFTTEYQ
B3: murine IL-2Rα, monomeric, his-tagged (receptor)
chain: ELCLYDPPEVPNATFKALSYKNGTILNCECKRGFRRLKELVYMRCLGNSWSSNCQCTSNSHDKSRKQVTAQLEHQKEQQTTTDMQKPTQSMHQENLTGHCREPPPWKHEDSKRIYHFVEGQSVHYECIPGYKALQRGPAISICKMKCGKTGWTQPQLTCVDEREHHRFLASEESQGSRNSSPESETSCPITTTDFPQPTETTAMTETFVLTMEYKVAVASCLFLLISILLLSGLTWQHRWRKSRRTI
B4: murine IL-2Rβγ heterodimeric Fc fusion (knobs-into-holes), biotinylated (Fc fusion)
chain 1: AVKNCSHLECFYNSRANVSCMWSHEEALNVTTCHVHAKSNLRHWNKTCELTLVRQASWACNLILGSFPESQSLTSVDLLDINVVCWEEKGWRRVKTCDFHPFDNLRLVAPHSLQVLHIDTQRCNISWKVSQVSHYIEPYLEFEARRRLLGHSWEDASVLSLKQRQQWLFLEMLIPSTSYEVQVRVKAQRNNTGTWSPWSQPLTFRTRPADPMKE
chain 2: WSSKVLMSSANEDIKADLILTSTAPEHLSAPTLPLPEVQCFVFNIEYMNCTWNSSSEPQATNLTLHYRYKVSDNNTFQECSHYLFSKEITSGCQIQKEDIQLYQTFVVQLQDPQKPQRRAVQKLNLQNLVIPRAPENLTLSNLSESQLELRWKSRHIKERCLQYLVQYRSNRDRSWTELIVNHEPRFSLPSVDELKRYTFRVRSRYNPICGSSQQWSKWSQPVHWGSHTVEENPSLFALEA
B5: human IL-2Rβγ heterodimeric Fc fusion (knobs-into-holes), biotinylated (Fc fusion)
chain 1: AVNGTSQFTCFYNSRANISCVWSQDGALQDTSCQVHAWPDRRRWNQTCELLPVSQASWACNLILGAPDSQKLTTVDIVTLRVLCREGVRWRVMAIQDFKPFENLRLMAPISLQVVHVETHRCNISWEISQASHYFERHLEFEARTLSPGHTWEEAPLLTLKQKQEWICLETLTPDTQYEFQVRVKPLQGEFTTWSPWSQPLAFRTKPAALGKDT
chain 2: LNTTILTPNGNEDTTADFFLTTMPTDSLSVSTLPLPEVQCFVFNVEYMNCTWNSSSEPQPTNLTLHYWYKNSDNDKVQKCSHYLFSEEITSGCQLQKKEIHLYQTFVVQLQDPREPRRQATQMLKLQNLVIPWAPENLTLHKLSESQLELNWNNRFLNHCLEHLVQYRTDWDHSWTEQSVDYRHKFSLPSVDGQKRYTFRVRSRFNPLCGSAQHWSEWSHPIHWGSNTSKENPFLFALEA
B6: cynomolgus IL-2Rβγ heterodimeric Fc fusion (knobs-into-holes), biotinylated (Fc fusion)
chain 1: B5 chain 1 with Q7R, A66T, T74A, L83M, V92M, E127K, L158M
chain 2: B5 chain 2 with T14A, A16T, T22S, H141R, T228S

target: T1, IgG-(IL-2)2 (bivalent fusion of two wild-type human IL-2 to a non-targeted, effector-silent human IgG1) (human, UniProt P60568 21-153); experiment: SPR; steady state

Binder | Kd [nM]
B1 | 5
B2 | 15
B3 | 30

target: T2, IgG-IL-2 (monovalent fusion of wild-type human IL-2 to a non-targeted, effector-silent human IgG1) (human, UniProt P60568 21-153); experiment: SPR; steady state

Binder | Kd [nM]
B1 | 15
B2 | 30
B3 | 110

target: T1, IgG-(IL-2)2 (bivalent fusion of two …); experiment: SPR

Binder | koff [s⁻¹]
B4 | 9.3e-05
B5 | 8.1e-06
B6 | 5.3e-05

target: T2, IgG-IL-2 (monovalent fusion of …); experiment: SPR

Binder | koff [s⁻¹]
B4 | 0.00065
B5 | 3.8e-05
B6 | 0.00011
